Assay results reported in US20190175744A1, “INSULIN-INCRETIN CONJUGATES” (Merck Sharp & Dohme Corp., priority 2016, published 2019).

Columns and labels:
[1] = biological target: human insulin receptor (IR), CHO cell line overexpressing human IR (pAkt assay) (human) (UniProt P06213); assay: cell-based or functional assay
[2] = biological target: minipig insulin receptor (IR) (minipig); assay: cell-based or functional assay

Insulin Receptor pAK Assay EC50, Human [1] | Insulin Receptor pAK Assay EC50, Minipig [2] | Substance
0.48 nM | – | Insulin degludec (ligand)
0.51 nM | 0.5 nM | Insulin levemir (ligand)
